Data as given in article PMC10786891, “Massively parallel profiling of RNA-targeting CRISPR-Cas13d”.
Residue numbers refer to the chain shown, from its start.

T1: EsCas13d, nuclease-dead (Eubacterium siraeum, UniProt B0MS50, R295A;H300A;R849A;H854A)
T1 sequence: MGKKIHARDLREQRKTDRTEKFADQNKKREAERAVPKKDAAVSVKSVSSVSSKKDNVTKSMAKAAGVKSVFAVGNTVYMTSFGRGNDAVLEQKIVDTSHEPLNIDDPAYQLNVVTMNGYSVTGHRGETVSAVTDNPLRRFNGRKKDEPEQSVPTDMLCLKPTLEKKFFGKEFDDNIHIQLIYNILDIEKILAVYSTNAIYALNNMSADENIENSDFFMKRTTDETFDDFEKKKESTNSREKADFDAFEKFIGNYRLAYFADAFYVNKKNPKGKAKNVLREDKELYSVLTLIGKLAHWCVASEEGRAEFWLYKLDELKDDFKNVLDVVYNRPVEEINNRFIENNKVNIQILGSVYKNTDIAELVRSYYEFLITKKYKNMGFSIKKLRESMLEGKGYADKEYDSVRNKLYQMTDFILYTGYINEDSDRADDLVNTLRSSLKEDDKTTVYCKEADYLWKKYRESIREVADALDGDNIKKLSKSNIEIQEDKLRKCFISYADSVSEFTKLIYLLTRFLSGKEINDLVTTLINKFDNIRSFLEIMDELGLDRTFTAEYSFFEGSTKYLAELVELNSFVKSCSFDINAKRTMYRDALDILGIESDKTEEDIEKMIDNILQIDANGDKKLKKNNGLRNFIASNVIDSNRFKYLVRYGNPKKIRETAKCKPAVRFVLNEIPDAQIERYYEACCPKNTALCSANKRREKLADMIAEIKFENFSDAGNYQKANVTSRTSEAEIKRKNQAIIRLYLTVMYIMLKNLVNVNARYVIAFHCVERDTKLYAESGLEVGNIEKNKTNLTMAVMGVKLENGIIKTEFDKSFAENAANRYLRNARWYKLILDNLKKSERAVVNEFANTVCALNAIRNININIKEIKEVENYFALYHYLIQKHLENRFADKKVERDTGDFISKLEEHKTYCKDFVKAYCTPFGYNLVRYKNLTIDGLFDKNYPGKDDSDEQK

B1: target 1 MT 5'PFS CCU 3'PFS CUU (mixed)
RNA 1: CACCCGUGCAAAAAUGCAGGGGUCUAAAACUGAGCGGAUAACCUCUCUAUGG
RNA 2: GGGAAUGGAUCCACAUCUACGAAUUCCCUCCAUAGAGAGGUUAUCCGCUCACUUAGAUCGGAAGAGCACACGU
B2: target 1 MT 5'PFS UCA 3'PFS CUA (mixed)
RNA 1: B1 RNA 1
RNA 2: B1 RNA 2 with C27U, U29A, U54A
B3: target 1 MT 5'PFS UCA 3'PFS CUC (mixed)
RNA 1: B1 RNA 1
RNA 2: B1 RNA 2 with C27U, U29A, U54C
B4: target 1 MT 5'PFS UAA 3'PFS CUG (mixed)
RNA 1: B1 RNA 1
RNA 2: B1 RNA 2 with C27U, C28A, U29A, U54G
B5: target 1 insA 3' of 17,insU 3' of 5 (mixed)
RNA 1: B1 RNA 1
RNA 2: GGGAAUGGAUCCACAUCUACGAAUUCGUACCAUAGAAGAGGUUAUCCGUCUCACCGAGAUCGGAAGAGCACACGU
B6: target 1 MT 5'PFS UAG 3'PFS UAG (mixed)
RNA 1: B1 RNA 1
RNA 2: B1 RNA 2 with C27U, C28A, U29G, C52U, U53A, U54G
B7: target 1 MT 5'PFS UAA 3'PFS CUC (mixed)
RNA 1: B1 RNA 1
RNA 2: B1 RNA 2 with C27U, C28A, U29A, U54C
B8: target 1 MT 5'PFS UAG 3'PFS UAC (mixed)
RNA 1: B1 RNA 1
RNA 2: B1 RNA 2 with C27U, C28A, U29G, C52U, U53A, U54C
B9: target 1 MT 5'PFS GGC 3'PFS UCA (mixed)
RNA 1: B1 RNA 1
RNA 2: B1 RNA 2 with C27G, C28G, U29C, C52U, U53C, U54A
B10: target 1 MT 5'PFS GGC 3'PFS UCC (mixed)
RNA 1: B1 RNA 1
RNA 2: B1 RNA 2 with C27G, C28G, U29C, C52U, U53C, U54C
B11: target 1 MT 5'PFS GGC 3'PFS UCG (mixed)
RNA 1: B1 RNA 1
RNA 2: B1 RNA 2 with C27G, C28G, U29C, C52U, U53C, U54G
B12: target 1 MT 5'PFS UAG 3'PFS UAU (mixed)
RNA 1: B1 RNA 1
RNA 2: B1 RNA 2 with C27U, C28A, U29G, C52U, U53A
B13: target 1 MT 5'PFS UAA 3'PFS CUU (mixed)
RNA 1: B1 RNA 1
RNA 2: B1 RNA 2 with C27U, C28A, U29A
B14: target 1 MT 5'PFS GGC 3'PFS UCU (mixed)
RNA 1: B1 RNA 1
RNA 2: B1 RNA 2 with C27G, C28G, U29C, C52U, U53C
B15: target 1 MT 5'PFS UGA 3'PFS CCG (mixed)
RNA 1: B1 RNA 1
RNA 2: B1 RNA 2 with C27U, C28G, U29A, U53C, U54G
B16: target 1 insU 3' of 22,insG 3' of 16 (mixed)
RNA 1: B1 RNA 1
RNA 2: GGGAAUGGAUCCACAUCUACGAAUUCGUACUCAUAGAGGAGGUUAUCCGCUCACCGAGAUCGGAAGAGCACACGU
B17: target 1 MT 5'PFS GUU 3'PFS UUG (mixed)
RNA 1: B1 RNA 1
RNA 2: B1 RNA 2 with C27G, C28U, C52U, U54G
B18: target 1 MT 5'PFS GUU 3'PFS UUC (mixed)
RNA 1: B1 RNA 1
RNA 2: B1 RNA 2 with C27G, C28U, C52U, U54C
B19: target 1 MT 5'PFS GUU 3'PFS UUA (mixed)
RNA 1: B1 RNA 1
RNA 2: B1 RNA 2 with C27G, C28U, C52U, U54A
B20: target 1 MT 5'PFS UGA 3'PFS CCU (mixed)
RNA 1: B1 RNA 1
RNA 2: B1 RNA 2 with C27U, C28G, U29A, U53C
B21: target 1 MT 5'PFS UAC 3'PFS ACU (mixed)
RNA 1: B1 RNA 1
RNA 2: B1 RNA 2 with C27U, C28A, U29C, C52A, U53C
B22: target 1 MT 5'PFS GUU 3'PFS AUC (mixed)
RNA 1: B1 RNA 1
RNA 2: B1 RNA 2 with C27G, C28U, C52A, U54C
B23: target 1 MT 5'PFS ACG 3'PFS UUG (mixed)
RNA 1: B1 RNA 1
RNA 2: B1 RNA 2 with C27A, U29G, C52U, U54G
B24: target 1 MT 5'PFS GUU 3'PFS AUA (mixed)
RNA 1: B1 RNA 1
RNA 2: B1 RNA 2 with C27G, C28U, C52A, U54A
B25: target 1 MT 5'PFS GUU 3'PFS AUG (mixed)
RNA 1: B1 RNA 1
RNA 2: B1 RNA 2 with C27G, C28U, C52A, U54G
B26: target 1 MT 5'PFS ACG 3'PFS UUC (mixed)
RNA 1: B1 RNA 1
RNA 2: B1 RNA 2 with C27A, U29G, C52U, U54C
B27: target 1 insC 3' of 14,insC 3' of 9 (mixed)
RNA 1: B1 RNA 1
RNA 2: B5 RNA 2 with A37G, G38A, A39C, U45C, C46U, G48C, U49G
B28: target 1 MT 5'PFS ACG 3'PFS UUA (mixed)
RNA 1: B1 RNA 1
RNA 2: B1 RNA 2 with C27A, U29G, C52U, U54A
B29: target 1 MT 5'PFS CUG 3'PFS CUA (mixed)
RNA 1: B1 RNA 1
RNA 2: B1 RNA 2 with C28U, U29G, U54A
B30: target 1 MT 5'PFS CUG 3'PFS CUC (mixed)
RNA 1: B1 RNA 1
RNA 2: B1 RNA 2 with C28U, U29G, U54C
B31: target 1 MT 5'PFS UUG 3'PFS CGA (mixed)
RNA 1: B1 RNA 1
RNA 2: B1 RNA 2 with C27U, C28U, U29G, U53G, U54A
B32: target 1 MT 5'PFS GGG 3'PFS GAG (mixed)
RNA 1: B1 RNA 1
RNA 2: B1 RNA 2 with C27G, C28G, U29G, C52G, U53A, U54G
B33: target 1 MT 5'PFS CUU 3'PFS UAU (mixed)
RNA 1: B1 RNA 1
RNA 2: B1 RNA 2 with C28U, C52U, U53A

What follows are binders tested against T1, EsCas13d, nuclease-dead (assay: crRNA (strand 1, pre-loaded); Mg2+; 40 mM Tris-HCl pH 7.5, 150 mM NaCl, 6 mM MgCl2, 1 mM DTT, 0.1% Tween-20, 0.2 mg/ml BSA; 25 C; 10 min per concentration, then washed). Conditions: tags: His6-TwinStrep-SUMO cleaved; N-terminal SNAP kept (SNAP-Surface 488); label: 3' end held by stalled T7 RNA polymerase.
Work on B1 yielded a Kd of 6.65 ± 1.95 nM. With B2 the Kd was 9.45 ± 2.55 nM. With B3 the Kd was 12.9 ± 3.1 nM. For B4, the Kd was 25.8 ± 5.25 nM. For B5, the Kd was 25.8 ± 2.8 nM. With B6 the Kd was 73.5 ± 28 nM. B7 showed a Kd of 74 ± 28 nM. B8 showed a Kd of 16.8 ± 2.05 nM. B9 gave a Kd of 17.1 ± 3.7 nM. B10 was tested, and the Kd was 17.8 ± 2.5 nM. For B11, the Kd was 11.1 ± 1.15 nM. Work on B12 yielded a Kd of 45 ± 9 nM. Binder B13 has a Kd of 48 ± 19 nM. B14 showed a Kd of 10 ± 1.2 nM. For B15, the Kd was about 42.5 nM. Work on B16 yielded a Kd of 48 ± 16 nM. B17 showed a Kd of 11.1 ± 1.05 nM. Binder B18 has a Kd of 10.6 ± 1.45 nM. In the case of B19, the Kd is reported as 13.1 ± 2.5 nM. Work on B20 yielded a Kd of 36 ± 15 nM. Binder B21 has a Kd of 11.2 ± 3.5 nM. With B22 the Kd was 19.3 ± 3.55 nM. Work on B23 yielded a Kd of 7.45 ± 1 nM. For B24, the Kd was 22 ± 5.5 nM. In the case of B25, the Kd is reported as 56 ± 9 nM. Work on B26 yielded a Kd of 19.5 ± 8 nM. B27 gave a Kd of 42 ± 11 nM. B28 showed a Kd of 6.9 ± 1.3 nM. For B29, the Kd was 5.8 ± 1.9 nM. B30 gave a Kd of 4.15 ± 1.5 nM. B31 showed a Kd of 47.5 ± 23.5 nM. With B32 the Kd was 20.5 ± 5.5 nM. Work on B33 yielded a Kd of 56 ± 24 nM.
